Laboratory results taken from US20250215091A1, “Anti-GAL3 Antibodies and Compositions” (Les Laboratoires Servier, priority 2022, published 2025).
Positions count from the first letter of the chain named.

T1: Gal3 CRD domain from dog (dog, UniProt P38486 152-296, limits assumed)
T1 construct: domain: CRD domain; also called dog Gal3-CRD
T1 sequence (looked up): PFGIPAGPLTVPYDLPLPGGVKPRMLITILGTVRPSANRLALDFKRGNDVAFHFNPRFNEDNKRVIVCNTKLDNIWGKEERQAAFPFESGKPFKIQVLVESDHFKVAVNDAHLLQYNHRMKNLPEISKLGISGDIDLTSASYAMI

T2: Gal3 CRD domain from rat (rat, UniProt P08699 118-262, limits assumed)
T2 construct: domain: CRD domain; also called rat Gal3-CRD
T2 sequence (looked up): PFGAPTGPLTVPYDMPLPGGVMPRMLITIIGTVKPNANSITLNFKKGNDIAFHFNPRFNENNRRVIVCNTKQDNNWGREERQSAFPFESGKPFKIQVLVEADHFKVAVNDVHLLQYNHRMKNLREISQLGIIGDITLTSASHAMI

B1: anti-Gal3 antibody D06 (antibody, V domains shown)
VH: EVQLVESGGSLVKPGGSLRLSCAASGFTFSNYNMNWVRQAPGKGLEWISSIYGSSRYIYYADFVKGRFTISRDNAKNSLYLQMNSLRAEDTAVYYCVRSGYGGMDVWGRGTLVTVSS
VL: QSVLTQPASVSGSPGQSITISCAGTSSDVGGYNGVSWYQQHPGKAPKLMIYYDSYRPSGVSNRFSGSKSGNTASLTISGLQAEDEADYYCSSGTDYSTRVFGGGTKLEIK
B2: anti-Gal3 antibody G03 (antibody, V domains shown)
VH: B1 VH with N33A, G100Y, Y101N
VL: B1 VL with N33Y, G34N, S36A, G93S, D95G
B3: anti-Gal3 antibody E01 (antibody, V domains shown)
VH: EVQLVESGGSLVKPGGSLRLSCAASGFTFSNNYMNWVRQAPGKGLEWISNINGASRNIAYADFVKGRFTISRDNAKNSLYLQMNSLRAEDTAVYYCVRSSDYDGGMDVWGRGTLVTVSS
VL: B1 VL with Y32N, N33S, G34Y, G93S, D95Y, Y96G
B4: anti-Gal3 antibody H10 (antibody, V domains shown)
VH: EVQLVESGGSLVKPGGSLRLSCAASGFTFSNYYMNWVRQAPGKGLEWISYINGASRDISYADFVKGRFTISRDNAKNSLYLQMNSLRAEDTAVYYCVRSSYGYSNYGSGMDVWGRGTLVTVSS
VL: B1 VL with Y32S, N33Y, G34N, S36A, Y52N, S54A, Y55N, G93N, D95A, Y96D
B5: anti-Gal3 antibody D11 (antibody, V domains shown)
VH: B1 VH with G100S
VL: B1 VL with Y32S, N33Y, G34N, S36A, G93Y, D95G
B6: anti-Gal3 antibody E02 (antibody, V domains shown)
VH: EVQLVESGGSLVKPGGSLRLSCAASGFTFSNYAMNWVRQAPGKGLEWISSIYGSSRSISYADFVKGRFTISRDNAKNSLYLQMNSLRAEDTAVYYCVRSSYNYYYGNGMDVWGRGTLVTVSS
VL: B1 VL with N33G, G93S, D95S
B7: anti-Gal3 antibody H07 (antibody, V domains shown)
VH: B1 VH with S50N, Y52D, G100Y
VL: B1 VL with N33Y, G34N, S36A, G93S, D95G
B8: anti-Gal3 antibody E07 (antibody, V domains shown)
VH: B1 VH with S50N, G100Y
VL: B1 VL with N33Y, G34S, Y55N, G93Y, D95G

biological target: T3, human full-length Galectin-1 (human, UniProt P09382 2-135); assay: ELISA on immobilised antigen (3 µg/mL), purified IgG at 15-20 µg/mL, anti-Fab.HRP, OD 450 nm
T3 construct: full-length; Histidine-tagged; also called Hu-Gall; Gall
T3 sequence (P09382 2-135 limits assumed): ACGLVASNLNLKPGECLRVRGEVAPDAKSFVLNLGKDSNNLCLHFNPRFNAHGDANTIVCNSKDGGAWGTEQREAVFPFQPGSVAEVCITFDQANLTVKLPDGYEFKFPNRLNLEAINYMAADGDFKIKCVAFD
Method: (§1) IgG specificity to Gal3 was tested by checking the absence of binding on human Gall and Gal7 by ELISA.
(§2) Hu-Gall and Hu-Gal7 were immobilized at 3 μg/mL. Purified IgGs were added into the wells (15-20 μg/mL final concentration) and detected with an anti-Fab.HRP antibody. Rabbit antibodies directed against Gall (Abcam ab25138 reference) and Gal7 (Abcam ab108623 reference) were used at 5 μg/mL as antigen-coating positive controls and detected with an anti-rabbit.HRP secondary antibody (7074S-Cell Signaling reference).

binding result | Binder
no binding (tested: 15-20 µg/mL) | B1
no binding (tested: 15-20 µg/mL) | B2
no binding (tested: 15-20 µg/mL) | B3
no binding (tested: 15-20 µg/mL) | B4
no binding (tested: 15-20 µg/mL) | B5
no binding (tested: 15-20 µg/mL) | B6
no binding (tested: 15-20 µg/mL) | B7
no binding (tested: 15-20 µg/mL) | B8

biological target: T4, human full-length Galectin-7 (human, UniProt P47929 1-136); assay: as above
T4 construct: full-length; Histidine-tagged; also called Hu-Gal7; Gal7
T4 sequence (P47929 whole entry): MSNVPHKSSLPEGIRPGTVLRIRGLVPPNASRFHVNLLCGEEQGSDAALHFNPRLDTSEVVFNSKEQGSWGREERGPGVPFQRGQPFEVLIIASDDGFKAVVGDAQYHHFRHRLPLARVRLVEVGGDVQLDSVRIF
Method: as §1, §2

binding result | Binder
no binding (tested: 15-20 µg/mL) | B1
no binding (tested: 15-20 µg/mL) | B2
no binding (tested: 15-20 µg/mL) | B3
no binding (tested: 15-20 µg/mL) | B4
no binding (tested: 15-20 µg/mL) | B5
no binding (tested: 15-20 µg/mL) | B6
no binding (tested: 15-20 µg/mL) | B7
no binding (tested: 15-20 µg/mL) | B8

biological target: T5, CRD domain of human Galectin-3 (human, UniProt P17931 106-250); assay: competitive ELISA, inhibition of ASF binding to immobilized Hu-Gal3-CRD
T5 construct: Histidine-tagged; also called hu-Gal3-CRD; Hu-Gal3-CRD
T5 sequence (P17931 106-250 limits assumed): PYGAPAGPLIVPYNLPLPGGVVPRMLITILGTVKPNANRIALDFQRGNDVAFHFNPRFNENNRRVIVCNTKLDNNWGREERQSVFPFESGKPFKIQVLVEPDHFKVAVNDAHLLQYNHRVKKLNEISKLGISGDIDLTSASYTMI
Method: The inhibitory properties and IC50 of the anti-Gal3 antibodies were determined in an ELISA competitive assay by measuring the binding of ASF to immobilized CRD domain of human Gal3 in absence or presence of the antibodies at different concentrations.
The inhibition assay was performed on Hu-Gal3-CRD which was immobilized at 1 μg/mL through its His-tag on functionalized microplates. A 2-fold or 3-fold serial dilution was carried-out with the purified IgGs and added to the wells with immobilized Hu-Gal3-CRD. ASF (A1908-Sigma reference) was added at 8 μg/mL in each well with or without IgGs. ASF binding to Hu-Gal3-CRD was detected with the HRP-labeled anti-ASF sheep antibody. IC50 were estimated according to the model equation Y=Bottom+(Top−Bottom)/(1+(X/IC50)). Indicative maximal percentages of inhibition were obtained with the formula: 100%−(((mean of bottom plateau values of IgGs)×100%)/mean of irrelevant IgG values)

IC50 | Max % inhibition | Binder
5.1 nM | 82% | B1
1.8 nM | 83% | B2
3.2 nM | 63% | B3
2.7 nM | 89% | B4
2.2 nM | 99% | B5
5.2 nM | 65% | B6
6 nM | 74% | B7
1.5 nM | 89% | B8

biological target: T6, full length human Galectin-3 (human, UniProt P17931 2-250); assay: dose-response ELISA on immobilized Hu-Gal3-FL, IgG
T6 construct: Printed as 'full length'; recombinant, immobilized through a histidine tag; also called hu-Gal3-FL; Hu-Gal3-FL
T6 sequence (P17931 2-250 limits assumed): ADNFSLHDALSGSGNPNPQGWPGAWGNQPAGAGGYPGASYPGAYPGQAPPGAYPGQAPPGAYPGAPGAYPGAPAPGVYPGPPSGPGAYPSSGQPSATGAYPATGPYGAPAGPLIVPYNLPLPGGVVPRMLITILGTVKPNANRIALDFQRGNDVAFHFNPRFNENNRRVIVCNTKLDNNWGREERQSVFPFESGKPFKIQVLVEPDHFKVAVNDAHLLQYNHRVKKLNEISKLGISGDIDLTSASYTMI
Method: (§3) To determine the half maximal effective concentration (EC50) of the antibodies, ELISA dose-response experiments were performed on Hu-Gal3-FL and on m-Gal3-FL.
(§4) Hu-Gal3-FL and m-Gal3-FL were immobilized at 3 μg/mL through their His-tag on functionalized microplates as before. A 3.3-fold serial dilution was carried-out with the purified IgGs, added to the wells containing immobilized Hu-Gal3-FL or m-Gal3-FL and detected with an anti-Fab.HRP antibody.

EC50 | Binder
0.26 nM | B1
0.52 nM | B2
14.3 nM | B3
0.2 nM | B4
0.37 nM | B5
34 nM | B6
2.4 nM | B7
0.07 nM | B8

biological target: T7, full length mouse Galectin-3 (mouse, UniProt P16110 2-264); assay: dose-response ELISA on immobilized m-Gal3-FL, IgG
T7 construct: Printed as 'full length'; recombinant, immobilized through a histidine tag; also called m-Gal3-FL; murine Gal3
T7 sequence (P16110 2-264 limits assumed): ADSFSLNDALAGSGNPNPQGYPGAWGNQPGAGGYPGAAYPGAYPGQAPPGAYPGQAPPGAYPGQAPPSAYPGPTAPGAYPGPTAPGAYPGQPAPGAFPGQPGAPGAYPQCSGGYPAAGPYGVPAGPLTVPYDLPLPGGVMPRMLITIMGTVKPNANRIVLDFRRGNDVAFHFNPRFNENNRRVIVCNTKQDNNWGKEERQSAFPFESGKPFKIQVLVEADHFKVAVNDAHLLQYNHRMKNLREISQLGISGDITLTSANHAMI
Method: as §3, §4

EC50 | Binder
0.16 nM | B1
13.6 nM | B2
25.9 nM | B3
5.9 nM | B4
0.99 nM | B5
76 nM | B6
88 nM | B7
0.3 nM | B8

biological target: T7, full length mouse Galectin-3; assay: ratio of the ELISA EC50 values on Hu-Gal3-FL and m-Gal3-FL
Method: as §3, §4

Ratio (Human/mouse Gal3 EC50 ratio) | Binder
2 | B1
26 | B2
2 | B3
30 | B4
3 | B5
2 | B6
37 | B7
4 | B8

biological target: T6, full length human Galectin-3; assay: SPR Biacore T-200, antibody captured by anti-human Fc, Gal3 in solution
Method: (§5) The CM5 sensor surface was first immobilized with an anti-human Fc mAb using a standard protocol. The entire sensor surface was first activated by injecting a 1:1 (v/v) mixture of 400 mM EDC and 100 mM NHS at a flow rate of 10 μL/minute for 7 minutes. Monoclonal anti-human Fc antibody (Millipore AP113), 25 μg/mL in Na acetate pH5, 360 s were flowed at 10 μL/minute to reach 10000 RU on both flow cells followed by the injection of 1 M ethanolamine, pH8.5 for 7 minutes at a flow rate of 10 μL/minute. During the entire immobilization procedure, HBS-P was used as the running buffer.
(§6) Antibody samples were prepared at 5 μg/ml and were injected for 30 seconds at 10 μL/minute. In general, 400 to 680 resonance units of antibodies were captured on the chip.

Kd | Binder
13 nM | B1
6 nM | B2
6.26 nM | B3
4.5 nM | B4
15 nM | B5
7.38 nM | B6
5.65 nM | B7
9 nM | B8

biological target: T7, full length mouse Galectin-3; assay: as above
Method: as §5, §6

Kd | Binder
1.34 nM | B1
4.53 nM | B2
7.81 nM | B3
2.72 nM | B4
2.8 nM | B5
4.13 nM | B6
4.86 nM | B7
4.14 nM | B8

biological target: T8, Gal3 CRD domain from cynomolgus (cynomolgus, UniProt A0A7N9CYL1 103-247); assay: SPR single-cycle kinetics, captured antibody, Gal3-CRD 0.5-50 nM
T8 construct: domain: CRD domain; also called cynomolgus Gal3-CRD
Method: as §5, §6
(§7) Kd values were also determined by SPR using […] kinetics analysis. A total of 5 concentrations of Gal3 CRD domain from human, dog, rat and cynomolgus (Novalix) [0.5-50] nM were injected over the antibody capture surfaces for 210 seconds followed by a dissociation phase of 600 seconds at 30 μL/minute. At the end of each cycle, capture surfaces were regenerated by 2 injections of glycine pH 1.5, for 30 seconds at 10 μL/minute, followed by an extra wash with glycine pH 1.5. Fresh antibody was captured at the beginning of each cycle.

Kd | Binder
10 nM | B1
5.6 nM | B4
11 nM | B5
7.4 nM | B8

biological target: T1, Gal3 CRD domain from dog; assay: as above
Method: as §5, §6, §7

Kd | Binder
12 nM | B1
24 nM | B4
26 nM | B5
23 nM | B8

biological target: T2, Gal3 CRD domain from rat; assay: as above
Method: as §5, §6, §7

Kd | Binder
4.8 nM | B1
12 nM | B4
8.6 nM | B5
15 nM | B8

biological target: T5, CRD domain of human Galectin-3; assay: as above
Method: as §5, §6, §7

Kd | Binder
15 nM | B1
8.2 nM | B4
26 nM | B5
14 nM | B8
